Source: the DeepSol protein solubility set

Test: soluble on expression in E. coli; label from the status in PepcDB or PDB records
For “MIVTKDYSKESRVNENSKYGTLISDWYLKGRLTSLESQFINALDILETYHYGEKEYKDAKDKLMTRILGEDQYLLERKKVQYEEYKKLYQKYKEENPTSKLKLKTFDQYTIEDLTMREYNELTESLKSAVKDFEKDVEKIENQHHDLKPFTDEMEEKATSRVDDLANKAYSVYFAFVRDTQHKTEALELKAKVDLVLGDEDKPHRISNERIEKEMIKDLESIIEDFFIETGLNKPGNITSYDSSKHHYKNHSEGFEALVKETREAVANADESWKTKTVKKYGESETKSPVVKEENKVEDPQSPKFDNQQEVKTTAGKAEETTQPVAQPL”, the “soluble on expression in E. coli” value was “soluble”. In the case of “MIVVLKMGADKNEVKKLIEAIGREGVEVNPIDGTELTVLGLVGDTSKIDAKRIEANKVVEKVMHVVEPFKKANRKFHPEPSIINVNGMEIGSKKIAMIAGPCSVETEDQIVSIAKDVKKSGAGFLRGGAFKPRTSPYAFQGLKYDGLDLLKKAKEKTGLPIVTEIMSTQDIDIFEENVDVIQVGARNMQNFDLLKELGKTNKTILLKRGLSATIEEWLMSAEYIMAGGNENVVLCERGIRTFETYTRNTLDLSAILAVKKLSHLPVIVDPSHAAGKSWMVDSLSKAAIAVGADGLIIEVHNDPAHALCDGKQSIKPNEYDELISELKTIASAVGREI”, the “soluble on expression in E. coli” value is reported as “not soluble”. In the case of “MIYQPDENRYHTMEYRRCGRSGVKLPAISLGLWHNFGDTTRVENSRALLQRAFDLGITHFDLANNYGPPPGSAECNFGRILQEDFLPWRDELIISTKAGYTMWDGPYGDWGSRKYLIASLDQSLKRMGLEYVDIFYHHRPDPETPLKETMKALDHLVRHGKALYVGISNYPADLARQAIDILEDLGTPCLIHQPKYSLFERWVEDGLLALLQEKGVGSIAFSPLAGGQLTDRYLNGIPEDSRAASGSRFLKPEQITADKLEKVRRLNELAARRGQKLSQMALAWVLRNDNVTSVLIGASKPSQIEDAVGMLANRRFSAAECAEIDAILEGRF”, the “soluble on expression in E. coli” value is reported as “not soluble”. For “MKALNLKTPGREDDDVDEVLDENTVQDVNENIMLKGLGGKENLQTIDHCATRLRLTVKDTALVDEALLKKAGAKGVVKSGGQSVQVIIGPNVEFAAEELRAAVK”, the “soluble on expression in E. coli” value was “not soluble”. For “MKANRWFGMAQPKSGKMNMNILHQEELIAQKKREIEARMEQKARQSHVPSPQPPHPGEIADAHNSCISNKFANDGSFLQQFLKLQKAQTSTDSAPRAPPSMPTPSSLKKPLVLSKRTGLGLSSPTGPVKNYSHAKQLPVAHRPSVFQSPDDDEEEDYEQWLEIKVSPPEGAETRRVIEKLARFVAEGGPELEKVAMEDYKDNPAFTFLHDKNSREFLYYRRKVAEIRKEAQKPQAATQKVSPPEDEEAKNLAEKLARFIADGGPEVETIALQNNRENQAFSFLYDPNSQGYRYYRQKLDEFRKAKAGSTGSFPAPAPNPSLRRKSAPEALSGAVPPITACPTPVAPAPAVNPTPSIPGKPTATAAVKRKRKSRWGPEEDKVEFHLLNWHRGT”, the “soluble on expression in E. coli” value was “soluble”. In the case of “MKAPELLLPAGGLERMRAAYDYGADAVYAGSPRYSLRARNNEFAKLDVLEQGIKEAHERNKKFFLTVNTLPHNSKLKTFVADMEPLIAMKPDALIMADPGLIMTVREKWPEMPIHLSVQANTTNYWGVKFWQNIGVERIILSRELSMEEIAEIRQECPDIELEVFIHGALCIAYSGRCLLSGYFNHRDPNQGTCTNSCRWDYKVHNATESDAGDAQLLQGFNFEKAQEEANQNFEGINGQKRHPYADKVFLIEESNRPGEMMPIMEDEHGTYIMNSKDLRGIEVVEKLAKIGVDSLKVEGRTKSLYYVARVAQSYRKAIDDAVAGRPFDYSLLSELEGLANRGYTSGFLERHQTQDYQNYLTGHSTAKQSQYVGHVTEIDENGWATVEVKNRFAVSDSLEIIHPSGNQTIKLEQMTRKGQPVDVAPGNGIQVKIPNMQGKEKALIARVLNP”, the “soluble on expression in E. coli” value is reported as “not soluble”. In the case of “MKASFKGKFDVDKSGSVASLTFNAGNAKLRATMTDASFVAGPSFNGLSLAVEKPGFFIIDYNVPKKDVRFQFMNTIRIAEKPLNLTYIHMRGDNRTIVDGSFVIDPANKLSANYMVGTKNCKLKYTYVHGGIATFEPCYDVAKNMWDFAISHKLYGGDNLKATYQTSSKMLGLEWSNNSKSTGSFKVCASMNLAEELKPPKLTAETTWNLEL”, the “soluble on expression in E. coli” value is reported as “soluble”. In the case of “MKAYWIAHVDVTDPQQYSEYTQRAPAAFQLFGGKFLARGGRSEAIEGRATPQRTVIIEFESYEQAVACYHSPQYQNAMSHRQGAAKAEIVIVEGQP”, the “soluble on expression in E. coli” value is reported as “not soluble”. With “MKCIESLGKTVDEAVKKALSELKVTEDKVEIKVIDEGSKGLLNIIGKREAKVKVTLKTDYIDEVRTFLRKVFEDMNLVIEIKIKEIGNDLFVNLFGKNIGLLIGYRGETLDSLQYLVNLVANKNHADGKYKRVILDTENYRAKREETLKRLALKISKRVKEEKSPFKLEPMNPYERRVIHSALQNDKYVRTYSEGEEPHRRVVVELKKS” the “soluble on expression in E. coli” value was “not soluble”. With “MKCYFRSFDAGIGDCNIIRLVKNEGEQYVIMVDCGSYTEPLKEYLQNALHNHIDLLIATHIDGDHIQGIATMLKKHEGLTVGEIWYNCYKRTKGAEYIELNDQQKAILKQIQKALPVEFDAINYREITATQGKTLAQTILCNEKFKGVWKTEYITSNTEDFDIPGGFGKIVFLAPRQEALKAIENKFKEAFDKYFMQAWNESIENVEELQELLIRLVDAYQDKFGGKQISAKNKPVYNVAFVRKQAKEEGADDSDTNCSSIAFMLECGEHRIAMLGDAFADIIEETIDNKYKDQAKPMECDAIKVSHHGSNGNSSKTLLDRINSHIYFIPGGKGEKYPAWGTFGRIAEKHKDDQAKLIVFSRQCTITEKMNGLNEEVKRELGVETIITEQEYELFEW” the “soluble on expression in E. coli” value was “not soluble”. In the case of “MKDLLTRRFVLNSKEVREGDVFVAVKGKRFDGHDFIDEALRNGAYAIIAERKTVNSDRIFLVESSVDTLAKLAREKLGNFSGTVVGVTGSSGKTTTKEILYNLLKNKRSVFKTPGNMNTEYGLPLSILNDYKGEEILVLEMAASRPGDIAHLCKIAPPDVAVLLNVGSAHLEFFGTRERIMETKMEIIKHSKENAIAVTLFDDPDLRKEVPRYRNTLFFGKEGGDSVLKDWWYYEGSTIAEFEAFDSLFTVKLSGYWNGGQLLNIAASLCVMRTLGETVDIFDLASLKTVPGRFNVREKKGVLIVDDTYNASPEAFQTSIEALLRFPGKKFAVVGAMKELGERSKEFHEELGERLNVLDGVYVFLSEPEAEWIKSKKIILKSDDPEKIAKDLATRVKKGDVVLFKASRAVRIERVLEMFEKELEKR”, the “soluble on expression in E. coli” value is reported as “soluble”. In the case of “MKDPLLNSLIYVSRYYGLANSPEALVNGLPLSDGKLTPFLLPRAAERAGLVAKENRAELEKISSLILPAILVLKGGDSCVLNSINMETREAEVTTLESGMVPISIPLEDLLEQYTGRYFLVKKQFR”, the “soluble on expression in E. coli” value is reported as “soluble”. For “MKDRFELVSKYQPQGDQPKAIEKLVKGIQEGKKHQTLLGATGTGKTFTVSNLIKEVNKPTLVIAHNKTLAGQLYSEFKEFFPNNAVEYFVSYYDYYQPEAYVPQTDTFIEKDASINDEIDKLRHSATSALFERRDVIIIASVSCIYGLGSPEEYREMVVSLRTEMEIERNELLRKLVDIQYARNDIDFQRGTFRVRGDVVEIFPASRDEHCVRVEFFGDEIERIREVDALTGEILGDRDHVAIFPASHFVTRAEKMEKAIQNIEKELEEQLKVMHENGKLLEAQRLEQRTRYDLEMMREMGFCSGIENYSRHLTLRPPGSTPYTLLDYFPDDFMIVVDESHVTIPQVRGMFNGDQARKQVLVDHGFRLPSALDNRPLRFEEFEKHMHNIVYVSATPGPYEIEHTDEMVEQIIRPTGLLDPLIDVRPIEGQIDDLIGEIQARIERNERVLVTTLTKKMSEDLTDYLKEIGIKVNYLHSEIKTLERIEIIRDLRLGKYDVLVGINLLREGLDIPEVSLVAILDADKEGFLRSERSLIQTIGRAARNAEGRVIMYADKITKSMEIAINETKRRREQQERFNEEHGITPKTINKEIRDVIRATVAAEDKAEYKTKAAPKLSKMTKKERQKVVEQMEHEMKEAAKALDFERAAELRDLLLELKAEG”, the “soluble on expression in E. coli” value was “soluble”. In the case of “MKDTVMMKLNTKESMAQIDGQTIYFKQIGEGKPPLLMLHGFGGSSDGFSDIYPELARDHTIIAVDILGFGRSSKPVDFQYSFPAQVNLYYKLMKKLGYNQFAVLGHSMGGEMSLNLAYLYPDAVTHLILADATGIESFQQKESYEVPPLSTDLQTVTEITKYNKNEVKNSRDDKEHYDQLTKMRERRIAMEADKIKVPTLIIWGRHDKSVSWKNGELYHGLFANSTFHIIEKGYHAPFRQEPIEFMEYVQAFFAKHPQ”, the “soluble on expression in E. coli” value is reported as “not soluble”. For “MKDVAKLLKILPPTFNETVLLPVQTQLKEHYPRTVSLVKNLVSPLPEEYRFLTEVLLSVLLSGEISETIPYQALLVAHGESTATSIQAVANKLCGTYIFDAINMPLTSSVRDIVAEVKEWLSQRDTSQGVIMLVDMGSLTQLYKSLKPQILGELLVINNLTTAYALEIGHQLMNEQLFYGIAKTAEKKFKTDVQYFEGFSVEKNIIVSSISGLDIAKQIKQICQKYLYTDIKVITLKYKDLVNTLDIANAEENYLKETSLILTTSYLDNHTNVASVNLLDMLDEDAGTQLMEPFQNLMHPNNIDSMINEFVHFFSKEGLSEKLEFLNPDVIIKQVENVTKNIEKRFDLTLSGKMKFNLMMHNALMVERTMLGVEDYEIPANLEELTINQKPFFQNAKNIFYTLEQFYRIEISNWELYVIYEILSSR”, the “soluble on expression in E. coli” value was “not soluble”. With “MKDVVIVGALRTPIGCFRGALAGHSAVELGSLVVKALIERTGVPAYAVDEVILGQVLTAGAGQNPARQSAIKGGLPNSVSAITINDVCGSGLKALHLATQAIQCGEADIVIAGGQENMSRAPHVLTDSRTGAQLGNSQLVDSLVHDGLWDAFNDYHIGVTAENLAREYGISRQLQDAYALSSQQKARAAIDAGRFKDEIVPVMTQSNGQTLVVDTDEQPRTDASAEGLARLNPSFDSLGSVTAGNASSINDGAAAVMMMSEAKARALNLPVLARIRAFASVGVDPALMGIAPVYATRRCLERVGWQLAEVDLIEANEAFAAQALSVGKMLEWDERRVNVNGGAIALGHPIGASGCRILVSLVHEMVKRNARKGLATLCIGGGQGVALTIERDE” the “soluble on expression in E. coli” value was “soluble”. For “MKEFVHDYLAASVENEEEGGRMRWYPWHSAEYRFNHILNVVDIATKIARKEGANVDVTRVAALFHDIAKLEAEQDLHAEAGARIAREYLRAHGDYPESFIEQVCSAVEVHSYQGSLDDLPLEVQCLIEADILDKVGANGTALMLLRMGYESRTHMDAAEMVDRVIERGEDARERVQSDTAESLVHQRLKRTRWFQEWLTMEVAEMAVEDDLDDVATGMGDSLEHHHHHH”, the “soluble on expression in E. coli” value was “soluble”. For “MKEILDHYGSLLSRIDDWFRACLDSSGDRIRCADGCSDCCRGLFDITLLDAAFLRRGFDRLDPEVREQVLVRCRERIAILRLVWPEFDQPFILNMRPDDEWEALMPDDDETPCPLLDRHGRCLVYEHRPMTCRLHGLPLVDVSGEIMHDEWCTLNCIDADPLADPALRGDFDRIFTEEVRLIRTFAGRLLGHPLSEVDTFIPTALVIAFDSINWLSWGNRLAALSLSDPRSKLEHHHHHH”, the “soluble on expression in E. coli” value was “not soluble”. With “MKETIIVVHERPDIYDPVFIEGLPGIGLVGKLAAEHLIQELKAKKFAELYSPHFMHQVLIRKGSIVELMKNEFYYWKSPDDEHRDLIIVTGDTQVPPTDSYGHFEVAGKMLDFVQEFGTREIITMGGYQVPELQGEPRVLAAVTHPDLISYYQEKLKDCKVNVMWREDEGGAIVGAAGLLLGIGKLRGMFGISLLGESLGYIVDAKAAKAVLTAVAKILGLEIDMTALEERAKETEEILRKVEEMQRTIMEQQLPRPTHEEEDRGYL” the “soluble on expression in E. coli” value was “not soluble”.
